Earlier results, collected in US20260256431A1, “IMAGING OF MATRIX METALLOPROTEINASE INHIBITORS” (Micro Vide, LLC, priority 2022, published 2026).

Tested on: MMP-2, MMP-9, and MMP-14

B1: rTIMP-3: recombinant tissue inhibitor of metalloproteinases-3 (protein, UniProt P35625 24-211, looked up)
Metalloproteinase inhibitor 3: CTCSPSHPQDAFCNSDIVIRAKVVGKKLVKEGPFGTLVYTIKQMKMYRGFTKMPHVQYIHTEASESLCGLKLEVNKYQYLLTGRVYDGKMYTGLCNFVERWDQLTLSQRKGLNYRYHLGCNCKIKSCYYLPCFVTSKNECLWTDMLSNFGYPGYQSKHYACIRQKGGYCSWYRGWAPPDKSIINATDP
- MMP activity and LV remodeling and indices of heart failure progression (intracoronary delivery in pigs at the time of reperfusion, earlier study): favorably reduced
- tissue MMP-2, MMP-9, and MMP-14 activity (sustained release of rTIMP-3 from a hydrogel, observed previously): inhibition
